“Also recorded” adds a separate entry of the source.
Legend:
gp96 = gp96 (Mus musculus, UniProt P08113); experiment: Analytical SEC of Meth A gp96 with added Con A; type: binding, murine
Experimental: To verify gp96 was oligomerized with Con A, a common homogenate from Meth A-induced murine fibrosarcoma tissue was prepared and processed using a process that included Con A and DEAE column chromatography. The final purified gp96 preparation was divided in two. To one half of the material, exogenous con A was added to a final concentration of 50 ug/mL; buffer alone was added to the other as a control, both samples incubated at 37° C. for 2 hr and then fractionated by SEC (Superdex 200). Individual fractions were analyzed by SDS-PAGE, and by gp96- and con A-specific ELISA. Analytical data for material […] is shown in the left panel; that to which con A was added to the right. In the left panel the peak of gp96 is in fraction 5 and con A levels as detected by specific ELISA are low. In the right panel (con A added) two peaks of gp96 are evident as shown by SDS-PAGE (inset; peak fractions 3 (arrow) and 5) and gp96 ELISA (fractions 3 and 5) as well as a distinct peak of Con A centered on fraction 3.
Con A was added (50 ug/mL final) to an aliquot of this gp96 sample (conc. 500 ug/ml), the sample incubated at RT and hourly samples were taken (T=1 through T=5) and analyzed by SEC. A sample comprising con A alone was also run. […] Each sample was then re-analyzed by SEC. […]

[1] = Sigma lectin list; cited from earlier work
Meth A cells = experiment: In vivo Meth A tumor inhibition (tumor protection / rejection) assay; design: species or system BALB/c mice; details: for tumor rejection activity, Con A added in process or to final product: in process 30 and 300 μg/ml, following purification 30 μg/ml
Experimental: In vivo Meth A growth inhibition assay: BALB/c mice (n=30/group) were immunized on day 0 and day 7 with 10 or 50 μg of gp96 intradermally in the flank. On study day 14, mice were challenged with 1×10^5 Meth A cells intradermally in a total volume of 100 μl. Growing tumors were monitored during the subsequent four weeks. All animals were euthanized on study day 41 after a final tumor measurement. Data was reported as percentage of animals that are tumor-free on study day 41. Control groups included un-immunized (diluent—negative control) and immunized with irradiated Meth A cells (positive control).
In vivo Meth A growth inhibition assay: BALB/c mice (n=10/group) were immunized on day 0 and day 7 with 10 μg of gp96 intradermally in the flank. On study day 14, mice were challenged with 1×10^5 Meth A cells intradermally in a total volume of 100 gl. Growing tumors were monitored during the subsequent four weeks. All animals were euthanized on study day 41 after a final tumor measurement. Data was reported as percentage of animals that are tumor-free on study day 41. Control groups included un-immunized (diluent—negative control) and immunized with irradiated Meth A cells (positive control).
(§1) In vivo Meth A growth inhibition assay: BALB/c mice (n=10/group) were immunized on day 0 and day 7 with 10 μg of gp96 intradermally in the flank. On study day 14, mice were challenged with 1×10^5 Meth A cells intradermally in a total volume of 100 μl. Growing tumors were monitored during the subsequent four weeks. All animals were euthanized on study day 41 after a final tumor measurement. Data was reported as percentage of animals that are tumor-free on study day 41. Control groups included un-immunized (diluent—negative control) and immunized with irradiated Meth A cells (positive control).
as §1, with “with 0.3 or 3” for “with 10”, “gp96 alone or in combination with Con A” for “gp96”

## CO[C@H]1O[C@H](CO)[C@@H](O)[C@H](O)[C@@H]1O [α-MM, Methyl α-D-Mannopyranoside, reference compound]
gp96; equal volume of PBS containing 10% α-MM added to 5 hr gp96 + Con A sample
  effect on high molecular weight gp96-Con A complex in SEC: dissociated the high molecular weight complex

## Concanavalin A [Con A]
gp96; Con A 50 ug/mL added to Meth A gp96, Superdex 200 or superose 6
  elution position of gp96 in SEC: mediated a shift in the elution position of the gp96 dimer peak
[1]
  Specificity Sugar: α-man, α-glc

## PHA-E: Phaseolus Vulgaris lectin, Sigma product
[1]
  Specificity Sugar: oligosaccharide

## PHA-L: Phaseolus Vulgaris lectin, Sigma product
[1]
  Specificity Sugar: oligosaccharide

B1: Pseudomonas aeruginosa (PA-I): lectin, Sigma product (protein, UniProt Q05097 2-122, looked up)
PA-I galactophilic lectin: AWKGEVLANNEAGQVTSIIYNPGDVITIVAAGWASYGPTQKWGPQGDREHPDQGLICHDAFCGALVMKIGNSGTIPVNTGLFRWVAPNNVQGAITLIYNDVPGTYGNNSGSFSVNIGKDQS
[1]
  Specificity Sugar: gal

B2: HSPPC-96 + Con A (in process): Meth A derived gp96 with Con A added during the purification process, before the DEAE column (protein, UniProt P08113 22-802, looked up)
Endoplasmin: DDEVDVDGTVEEDLGKSREGSRTDDEVVQREEEAIQLDGLNASQIRELREKSEKFAFQAEVNRMMKLIINSLYKNKEIFLRELISNASDALDKIRLISLTDENALAGNEELTVKIKCDKEKNLLHVTDTGVGMTREELVKNLGTIAKSGTSEFLNKMTEAQEDGQSTSELIGQFGVGFYSAFLVADKVIVTSKHNNDTQHIWESDSNEFSVIADPRGNTLGRGTTITLVLKEEASDYLELDTIKNLVRKYSQFINFPIYVWSSKTETVEEPLEEDEAAKEEKEESDDEAAVEEEEEEKKPKTKKVEKTVWDWELMNDIKPIWQRPSKEVEEDEYKAFYKSFSKESDDPMAYIHFTAEGEVTFKSILFVPTSAPRGLFDEYGSKKSDYIKLYVRRVFITDDFHDMMPKYLNFVKGVVDSDDLPLNVSRETLQQHKLLKVIRKKLVRKTLDMIKKIADEKYNDTFWKEFGTNIKLGVIEDHSNRTRLAKLLRFQSSHHSTDITSLDQYVERMKEKQDKIYFMAGSSRKEAESSPFVERLLKKGYEVIYLTEPVDEYCIQALPEFDGKRFQNVAKEGVKFDESEKTKESREATEKEFEPLLNWMKDKALKDKIEKAVVSQRLTESPCALVASQYGWSGNMERIMKAQAYQTGKDISTNYYASQKKTFEINPRHPLIRDMLRRIKEDEDDKTVMDLAVVLFETATLRSGYLLPDTKAYGDRIERMLRLSLNIDPEAQVEEEPEEEPEDTSEDAEDSEQDEGEEMDAGTEEEEEETEKESTEKDEL
modifications: tumor-derived; Con A added
notes: Meth A derived gp96 with Con A added during the purification process, before the DEAE column
Meth A cells; Con A 3, 10, 30, 100, 300 ug/ml added before DEAE, 10 μg gp96, tumor-free on day 41
  tumor rejection activity, Con A added in process at graded levels: titratable increase in the tumor rejection activity
Meth A cells; 10 μg gp96
  tumor rejection activity, Con A added in process or to final product: increase in the tumor rejection activity; also recorded: increases the tumor rejection activity

B3: scFv-purified Meth A gp96 + Con A: Meth A derived gp96 from anti-gp96 scFv immunoaffinity column, Con A added (protein, UniProt P08113 22-802, looked up)
Endoplasmin: DDEVDVDGTVEEDLGKSREGSRTDDEVVQREEEAIQLDGLNASQIRELREKSEKFAFQAEVNRMMKLIINSLYKNKEIFLRELISNASDALDKIRLISLTDENALAGNEELTVKIKCDKEKNLLHVTDTGVGMTREELVKNLGTIAKSGTSEFLNKMTEAQEDGQSTSELIGQFGVGFYSAFLVADKVIVTSKHNNDTQHIWESDSNEFSVIADPRGNTLGRGTTITLVLKEEASDYLELDTIKNLVRKYSQFINFPIYVWSSKTETVEEPLEEDEAAKEEKEESDDEAAVEEEEEEKKPKTKKVEKTVWDWELMNDIKPIWQRPSKEVEEDEYKAFYKSFSKESDDPMAYIHFTAEGEVTFKSILFVPTSAPRGLFDEYGSKKSDYIKLYVRRVFITDDFHDMMPKYLNFVKGVVDSDDLPLNVSRETLQQHKLLKVIRKKLVRKTLDMIKKIADEKYNDTFWKEFGTNIKLGVIEDHSNRTRLAKLLRFQSSHHSTDITSLDQYVERMKEKQDKIYFMAGSSRKEAESSPFVERLLKKGYEVIYLTEPVDEYCIQALPEFDGKRFQNVAKEGVKFDESEKTKESREATEKEFEPLLNWMKDKALKDKIEKAVVSQRLTESPCALVASQYGWSGNMERIMKAQAYQTGKDISTNYYASQKKTFEINPRHPLIRDMLRRIKEDEDDKTVMDLAVVLFETATLRSGYLLPDTKAYGDRIERMLRLSLNIDPEAQVEEEPEEEPEDTSEDAEDSEQDEGEEMDAGTEEEEEETEKESTEKDEL
modifications: tumor-derived; Con A added
Meth A cells; 0.3 or 3 μg gp96 alone or in combination with Con A
  tumor rejection activity, immunoaffinity (scFv) purified gp96 with Con A: increases the tumor rejection activity

B4: HSPPC-96 + Con A (final product): Meth A derived gp96 purified by standard procedure with Con A (30 ug/mL) added following purification (protein, UniProt P08113 22-802, looked up)
Endoplasmin: DDEVDVDGTVEEDLGKSREGSRTDDEVVQREEEAIQLDGLNASQIRELREKSEKFAFQAEVNRMMKLIINSLYKNKEIFLRELISNASDALDKIRLISLTDENALAGNEELTVKIKCDKEKNLLHVTDTGVGMTREELVKNLGTIAKSGTSEFLNKMTEAQEDGQSTSELIGQFGVGFYSAFLVADKVIVTSKHNNDTQHIWESDSNEFSVIADPRGNTLGRGTTITLVLKEEASDYLELDTIKNLVRKYSQFINFPIYVWSSKTETVEEPLEEDEAAKEEKEESDDEAAVEEEEEEKKPKTKKVEKTVWDWELMNDIKPIWQRPSKEVEEDEYKAFYKSFSKESDDPMAYIHFTAEGEVTFKSILFVPTSAPRGLFDEYGSKKSDYIKLYVRRVFITDDFHDMMPKYLNFVKGVVDSDDLPLNVSRETLQQHKLLKVIRKKLVRKTLDMIKKIADEKYNDTFWKEFGTNIKLGVIEDHSNRTRLAKLLRFQSSHHSTDITSLDQYVERMKEKQDKIYFMAGSSRKEAESSPFVERLLKKGYEVIYLTEPVDEYCIQALPEFDGKRFQNVAKEGVKFDESEKTKESREATEKEFEPLLNWMKDKALKDKIEKAVVSQRLTESPCALVASQYGWSGNMERIMKAQAYQTGKDISTNYYASQKKTFEINPRHPLIRDMLRRIKEDEDDKTVMDLAVVLFETATLRSGYLLPDTKAYGDRIERMLRLSLNIDPEAQVEEEPEEEPEDTSEDAEDSEQDEGEEMDAGTEEEEEETEKESTEKDEL
modifications: tumor-derived; Con A added
Meth A cells; 10 μg gp96
  tumor rejection activity, Con A added in process or to final product: increase in the tumor rejection activity; also recorded: increases the tumor rejection activity

Source: patent publication US20040258705A1, “Use of lectins to promote oligomerization of glycoproteins and antigenic molecules” (Antigenics Inc., priority 2003, published 2004)
